Legend:
[1] = target: single chain FcRn-β2m-his (human scFcRn, Acro Biosystems Cat. No. FCM-H5286) (human) (UniProt P55899); assay: FACS of E. coli spheroplasts displaying the IgG, 10 nM scFcRn-FITC at pH 5.8
[2] = target: dimeric human FcRn-β2m-GST (human) (UniProt P55899); assay: FACS of E. coli spheroplasts displaying the IgG, 50 nM dFcRn-GST-APC at pH 7.4
[3] = target: monomeric FcγRI-His (human) (human) (UniProt P12314); assay: SPR, antibody on CM5 chip, receptor injected, pH 7.4 HBS-EP
[4] = target: dimeric FcγRIIb-GST (human) (human) (UniProt P31994); assay: as above
Sequence of dimeric FcγRIIb-GST (human) (human) (P31994 43-217 limits assumed): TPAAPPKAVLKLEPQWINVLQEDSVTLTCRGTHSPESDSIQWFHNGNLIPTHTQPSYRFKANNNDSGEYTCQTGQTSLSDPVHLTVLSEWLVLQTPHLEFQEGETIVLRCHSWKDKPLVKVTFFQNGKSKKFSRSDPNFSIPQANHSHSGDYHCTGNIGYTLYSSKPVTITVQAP

[5] = target: dimeric FcγRIIa-R131-GST (human) (human) (UniProt P12318); assay: as above
Sequence of dimeric FcγRIIa-R131-GST (human) (human) (P12318 34-218 H167R limits assumed): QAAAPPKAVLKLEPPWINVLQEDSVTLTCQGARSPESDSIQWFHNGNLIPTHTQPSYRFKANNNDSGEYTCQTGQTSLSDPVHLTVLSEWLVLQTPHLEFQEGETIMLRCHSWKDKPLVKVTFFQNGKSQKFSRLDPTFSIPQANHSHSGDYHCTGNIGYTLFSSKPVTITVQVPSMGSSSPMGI

[6] = target: dimeric FcγRIIa-H131-GST (human) (human) (UniProt P12318); assay: as above
Sequence of dimeric FcγRIIa-H131-GST (human) (human) (P12318 34-218 limits assumed): as the sequence (P12318 34-218 H167R limits assumed) above, with R134H counted along it

[7] = target: dimeric FcγRIIIa-F158-GST (human) (human) (UniProt P08637); assay: as above
Sequence of dimeric FcγRIIIa-F158-GST (human) (human) (P08637 17-208 limits assumed): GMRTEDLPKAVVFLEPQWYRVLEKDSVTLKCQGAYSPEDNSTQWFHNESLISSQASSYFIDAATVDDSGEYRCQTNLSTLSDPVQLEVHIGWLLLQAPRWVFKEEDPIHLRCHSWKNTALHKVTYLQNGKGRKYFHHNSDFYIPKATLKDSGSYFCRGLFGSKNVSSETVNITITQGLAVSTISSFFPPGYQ

[8] = target: single chain FcRn-β2m-his (human scFcRn, Acro Biosystems Cat. No. FCM-H5286) (human) (UniProt P55899); assay: SPR, antibody on CM5 chip, scFcRn 400-25 nM, pH 5.8 PBS, 1:1 Langmuir
[9] = target: dimeric FcγRIIb-GST (human) (human) (UniProt P31994); assay: ELISA: antibody coated, serially diluted GST-FcγRIIb (the concentration is that of the receptor), anti-GST HRP
[10] = target: single chain FcRn-β2m-his (human scFcRn, Acro Biosystems Cat. No. FCM-H5286) (human) (UniProt P55899); assay: SPR, antibody on CM5 chip, FcRn/β2m injected, pH 5.8 (same values as Table 5)
[11] = target: dimeric FcγRIIa-R131-GST (human) (human) (UniProt P12318); assay: ELISA: antibody coated, serially diluted GST-FcγRIIaR131 (the concentration is that of the receptor), anti-GST HRP
C1q = C1q (UniProt P02745); assay: SPR, antibody on CM5 chip, C1q injected, pH 7.4 HBS-EP
Sequence of C1q (P02745 23-245 limits assumed, chain 1 of 3): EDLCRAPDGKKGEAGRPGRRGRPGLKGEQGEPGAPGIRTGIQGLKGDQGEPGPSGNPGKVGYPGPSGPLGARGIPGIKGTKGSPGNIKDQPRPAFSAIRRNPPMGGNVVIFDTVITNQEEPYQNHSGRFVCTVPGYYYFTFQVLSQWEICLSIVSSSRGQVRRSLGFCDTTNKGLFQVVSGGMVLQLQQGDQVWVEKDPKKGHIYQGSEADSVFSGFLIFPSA
Sequence of C1q (P02746 28-253 limits assumed, chain 2 of 3, further chain): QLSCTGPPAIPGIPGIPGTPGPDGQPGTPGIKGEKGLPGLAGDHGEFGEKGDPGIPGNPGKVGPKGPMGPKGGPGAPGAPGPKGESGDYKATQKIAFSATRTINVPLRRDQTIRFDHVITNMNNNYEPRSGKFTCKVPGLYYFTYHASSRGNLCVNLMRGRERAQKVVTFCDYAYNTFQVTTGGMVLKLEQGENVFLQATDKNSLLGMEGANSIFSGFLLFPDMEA
Sequence of C1q (P02747 29-245 limits assumed, chain 3 of 3, further chain): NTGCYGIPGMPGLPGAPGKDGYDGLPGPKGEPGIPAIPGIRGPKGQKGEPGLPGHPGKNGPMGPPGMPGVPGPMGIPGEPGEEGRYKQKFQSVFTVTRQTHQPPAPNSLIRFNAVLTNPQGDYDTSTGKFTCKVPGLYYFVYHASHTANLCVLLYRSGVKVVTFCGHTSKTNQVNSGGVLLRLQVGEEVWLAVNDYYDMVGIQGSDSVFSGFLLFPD

[12] = target: single chain FcRn-β2m-his (human scFcRn, Acro Biosystems Cat. No. FCM-H5286) (human) (UniProt P55899); assay: SPR, antibody on CM5 chip, scFcRn, pH 5.8
[13] = target: single chain FcRn-β2m-his (human scFcRn, Acro Biosystems Cat. No. FCM-H5286) (human) (UniProt P55899); assay: SPR, antibody on CM5 chip, scFcRn 400-25 nM, pH 5.8 PBS
[14] = target: single chain FcRn-β2m-his (human scFcRn, Acro Biosystems Cat. No. FCM-H5286) (human) (UniProt P55899); assay: SPR at pH 7.4 PBS, scFcRn on CM5 chip at medium density (2000 RU), antibody 400-25 nM injected
[15] = target: single chain FcRn-β2m-his (human scFcRn, Acro Biosystems Cat. No. FCM-H5286) (human) (UniProt P55899); assay: SPR at pH 7.4 PBS, scFcRn on CM5 chip at high density (4000 RU), antibody 400-25 nM injected
[16] = target: dimeric human FcRn-β2m-GST (human) (UniProt P55899); assay: ELISA at pH 7.4: antibody coated, serially diluted dFcRn (the concentration is that of dFcRn), anti-GST HRP

Sequence of dimeric human FcRn-β2m-GST (human) (P55899 other isoform, or with tags, fused parts or gaps limits assumed): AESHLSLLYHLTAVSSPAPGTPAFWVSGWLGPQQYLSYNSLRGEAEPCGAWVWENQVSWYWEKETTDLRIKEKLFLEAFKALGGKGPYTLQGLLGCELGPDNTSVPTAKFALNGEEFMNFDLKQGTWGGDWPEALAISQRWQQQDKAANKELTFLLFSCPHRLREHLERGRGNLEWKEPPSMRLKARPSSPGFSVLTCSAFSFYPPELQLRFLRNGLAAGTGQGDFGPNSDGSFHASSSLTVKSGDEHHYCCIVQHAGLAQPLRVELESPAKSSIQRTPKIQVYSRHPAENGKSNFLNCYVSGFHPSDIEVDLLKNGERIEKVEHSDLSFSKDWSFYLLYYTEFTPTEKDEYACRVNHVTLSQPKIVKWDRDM
Sequence of single chain FcRn-β2m-his (human scFcRn, Acro Biosystems Cat. No. FCM-H5286) (human) (P55899 other isoform, or with tags, fused parts or gaps): as the sequence (P55899 other isoform, or with tags, fused parts or gaps limits assumed) above
Sequence of monomeric FcγRI-His (human) (human) (P12314 16-288 limits assumed): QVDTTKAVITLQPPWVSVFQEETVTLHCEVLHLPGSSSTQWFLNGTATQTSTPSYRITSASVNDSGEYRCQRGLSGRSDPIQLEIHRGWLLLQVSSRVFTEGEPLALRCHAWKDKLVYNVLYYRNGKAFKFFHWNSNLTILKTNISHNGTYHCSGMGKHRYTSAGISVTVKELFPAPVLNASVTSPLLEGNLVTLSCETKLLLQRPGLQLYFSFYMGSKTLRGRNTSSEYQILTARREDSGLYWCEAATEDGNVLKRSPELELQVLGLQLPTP
Sequence of Herceptin-IgG4 (wild type IgG4 with the Fab of trastuzumab) (antibody) (Fc): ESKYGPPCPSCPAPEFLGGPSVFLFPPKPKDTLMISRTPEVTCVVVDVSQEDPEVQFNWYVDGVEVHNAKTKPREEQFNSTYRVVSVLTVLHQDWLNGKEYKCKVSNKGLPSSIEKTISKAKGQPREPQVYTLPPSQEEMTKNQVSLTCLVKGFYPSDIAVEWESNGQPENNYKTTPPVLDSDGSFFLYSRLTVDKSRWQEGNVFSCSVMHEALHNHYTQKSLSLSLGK

For “EDH (V264E, L309D, and Q311H), IgG displayed on E. coli spheroplasts (antibody)”, which M (mean fluorescence intensity) [1] is on record?
The M (mean fluorescence intensity) was 135.

What about the M (mean fluorescence intensity) [2] of the same substance?
Its M (mean fluorescence intensity) is 20.4.

With “EDHS (V264E, L309D, Q311H, and N434S), IgG displayed on E. coli spheroplasts (antibody)” as the substance, how does the M (mean fluorescence intensity) [1] read?
The M (mean fluorescence intensity) was 239.

What about the M (mean fluorescence intensity) [2] of the same substance?
The M (mean fluorescence intensity) was 60.3.

Which results are given for “EDHY (V264E, L309D, Q311H, and N434Y), IgG displayed on E. coli spheroplasts (antibody)”?
M (mean fluorescence intensity) [1]: 265; M (mean fluorescence intensity) [2]: 379

“Herceptin-DHS (L309D; Q311H; N434S) (antibody)” was tested. Which Kd [3] did it give?
Its Kd is 0.28 nM.

And the Kd [4]?
The Kd was 2910 nM.

And the Kd [5]?
The Kd was 950 nM.

And the Kd [6]?
The Kd was 270 nM.

What about the Kd [7] of the same substance?
Its Kd is 480 nM.

And the Kd [8]?
The Kd was 111 nM.

And the EC50 (read off the curve) [9]?
The EC50 (read off the curve) was 4 nM.

What about the Kd [10] of the same substance?
Its Kd is 110 nM.

And the EC50 (read off the curve) [11]?
Its EC50 (read off the curve) is 7 nM.

And the Kd (C1q)?
Its Kd is 25 nM.

How did the Kd [8] turn out when “Herceptin-EDH (V264E, L309D, Q311H) (antibody)” was run?
The Kd was 487 nM.

What about the koff [8] of the same substance?
Its koff is 0.23 s⁻¹.

And the kon [8]?
The kon was 465000 M⁻¹ s⁻¹.

What does the source list for “Herceptin-EDHS (V264E, L309D, Q311H, N434S) (antibody)”?
Kd [8]: 93 nM; koff [8]: 0.11 s⁻¹; kon [8]: 1.2e+06 M⁻¹ s⁻¹; fold enhanced affinity than Herceptin [12]: 5.9 fold

What does the source list for “Herceptin-EDHY (V264E, L309D, Q311H, N434Y) (antibody)”?
Kd [8]: 28 nM; koff [8]: 0.038 s⁻¹; kon [8]: 1.4e+06 M⁻¹ s⁻¹; fold enhanced affinity than Herceptin [12]: 19.6 fold

Which Kd [13] does the source give for “Herceptin-IgG4 (wild type IgG4 with the Fab of trastuzumab) (antibody)” here?
The Kd was 2460 nM.

With Herceptin-LS (M428L/N434S) (antibody) as the substance, how does the Kd [14] read?
Its Kd is 58.7 nM.

And the Kd [3]?
Its Kd is 0.58 nM.

And the Kd [4]?
The Kd was 2250 nM.

What about the Kd [5] of the same substance?
The Kd was 1210 nM.

What about the Kd [6] of the same substance?
The Kd was 410 nM.

And the Kd [8]?
Its Kd is 55 nM.

And the Kd [15]?
Its Kd is 22.7 nM.

What about the Kd [10] of the same substance?
The Kd was 55 nM.

What about the EC50 (read off the curve) [16] of the same substance?
Its EC50 (read off the curve) is 10 nM.

And the Kd (C1q)?
Its Kd is 16 nM.

For “Herceptin-YTE (M252Y/S254T/T256E) (antibody)”, which Kd [14] is on record?
The Kd was 4730 nM.

What about the Kd [3] of the same substance?
The Kd was 0.29 nM.

And the Kd [4]?
The Kd was 6240 nM.

What about the Kd [5] of the same substance?
The Kd was 3200 nM.

And the Kd [6]?
Its Kd is 620 nM.

What about the Kd [7] of the same substance?
The Kd was 4410 nM.

What about the Kd [8] of the same substance?
The Kd was 23 nM.

What about the Kd [15] of the same substance?
Its Kd is 4290 nM.

And the Kd [10]?
Its Kd is 23 nM.

And the Kd (C1q)?
Its Kd is 42 nM.

Which M (mean fluorescence intensity) [1] does the source give for M428L/N434S (antibody) here?
Its M (mean fluorescence intensity) is 152.

What about the M (mean fluorescence intensity) [2] of the same substance?
Its M (mean fluorescence intensity) is 83.3.

“TEDHY (A231T, V264E, L309D, Q311H, and N434Y), IgG displayed on E. coli spheroplasts (antibody)” was tested. Which M (mean fluorescence intensity) [1] did it give?
Its M (mean fluorescence intensity) is 231.

What about the M (mean fluorescence intensity) [2] of the same substance?
The M (mean fluorescence intensity) was 237.

— US20210347891A1
